Assay results reported in the DeepSol protein solubility set.

assay: soluble on expression in E. coli; label from the status in PepcDB or PDB records

Sequence | soluble on expression in E. coli
MSLGDQTLVRELSPLKNKGESTFRMGLYIRDSAAGVGTLTFYDPVSKKYGALGHVISDVDTKKPIVVHDGQIIRSSVTSIDKGSNGDPGEKLASFSNQRNTLGTIEKNSSFGIFGTLTEKDLKNHVSDEALPVTLSNHVKEGPAKILTVVEGEKVEEFDIEIVSSVPQKQPATKGLVIKVTDPKLLNTTGGIVQGMSGSPIIQDGKLVGAVTHVFVNDPTSGYGCHISWMLEEAGITFDQSKAKASEGHHHHHH | soluble
MLVLPKGVRHMPAYLSRAIQDALVEDVRSIVQQAPLFVPAMPRTGKEMSVRMTNCGPLGWVTDKERGYRYQPTHPLTGEPWPPIPESLLDLWRQVSGYPNPPEACLINFYTADAKMGLHQDRDEADFSAPVVSVSLGDDCLFRVGQTTRDGATKSFRLKSGDVVVLGGEGRLAFHGVDRIYPSTSALLKNGGRINLTLRRVTKPHEECLTSRSLEHHHHHH | soluble
MDGYTGSHVVRCALRLAPLVFVRPGELRKAEWKDIDLDGGEWRYTVTKTNTPHIVPLSTQAVEILKELQALTGRSRFVFPGARTNGRPMSDNAILAALRRMGIDKEEMSGHGFRAMARTILDEVLGVRPDFIEHQLAHSVRDPLEHHHHHH | not soluble
GVADASDPIRPLVEALNAEAPLKLWSVLVTCLGDVSRDGVIEVSGVALSSFVERMGLQPQAMRVALHRLKRDGWVESRRLGRVGFHRLSDSALTQTRAVAGRIYGPGAGPAPWHLAGMPPDAPDGLSLLPDTLSATPISRRFALICGPLEDVPEDWLLTAPSGRGLPVWVQDVVVEAGCEAEFKALERTLAQIDKVPDTRLERFTLRVLVLHAWRRLILRSSPAAEAALGGARAEISCRARVHQLLDQLGSVEPDWDLPATEDAAS | soluble
LYLEQSDIEGHIGVFGSTGSGKTTTLATIACGAAEAGLPVVVADWHGEYQRLVGGGGCRPRVIDPGREGGVNPLSLGWDYSVKTALLASALGLTEPQHYMLLKLLEEHEPRSLIELHSMVEDVEENSRWDREVKRGLMRRLGPLASRAGRSLVEGEGPPIGGRGLYIVDTGSIGNVQLRKTYSILLAAYLQYKAYSRELGPLLLVVDEAHNMFDGEESFPSIMMAESRKFGLYIALATQNPHLLPLRAVSNTNTKIVHSLRWWRDLESIASALSLPRETASKLPHLGRGEAVVYAPSLGYPVLAKIVPPE | not soluble
MLMPEMDRRRMMMMAGFGALAAALPAPTAWADPSRPAAPAGPTPAPAAPAAATGGLLFHDEFDGPAGSVPDPSKWQVSNHRTPIKNPVGFDRPQFFGQYRDSRQNVFLDGNSNLVLRATREGNRYFGGLVHGLWRGGIGTTWEARIKFNCLAPGMWPAWWLSNDDPGRSGEIDLIEWYGNGTWPSGTTVHANPDGTAFETCPIGVDGGWHNWRVTWNPSGMYFWLDYADGIEPYFSVPATGIEDLNEPIREWPFNDPGYKVFPVLNLAVGGSGGGDPATGSYPQEMLVDWVRVF | not soluble
MGSDKIHHHHHHMYTYKIGISKEEHDNFIKNSSQTNLLQSSSWAKVKDEWENERIGFYQDSKLVASASILIRPLPLGMTMFYIPRGPVMNYQDKDLVNFVLTSLKKFAKRKRALFIKFDPFILLNHHQIDEEAINNPQAQTIIDTLKHLGCEWLGQTSDMGETIQPRFQANIYAEGFSEANLSKKIRQSIRTAKNKGVSIRFGGYELLADFSDLMKKTEDRKSIHLRGIDYYRKLLDNYPQHSFITLASLNLKERLTELESQRKKAQNNLAKFGDNVKPSKIDNTKKEIERLSDEIAFLQEHLSQGKDTVPLSGTLSLEFGKTSENVYAGMDDEFRRYQAAIYTWFATANHAFERGSHWQNMGGIENDLSGGLYNFKSKFKPEIEEFIGEFNLPVSPLYKLANIAYTIRKKRRSKH | not soluble
MGSRASTLLRDEELEEIKKETGFSHSQITRLYSRFTSLDKGENGTLSREDFQRIPELAINPLGDRIINAFFSEGEDQVNFRGFMRTLAHFRPIEDNEKSKDVNGPEPLNSRSNKLHFAFRLYDLDKDDKISRDELLQVLRMMVGVNISDEQLGSIADRTIQEADQDGDSAISFTEFVKVLEKVDVEQKMSIRFLHKLAAALEHHHHHH | soluble
MGSDKIHHHHHHMTDHVIAHAFSYRHASRRKPALVDLTLKISRGERVLLLGASGSGKSTLLAAIAGVLADEDGEHSGELQVSGTPGMVLQDPDSQVISSRVGDDVAFGCENMCVPRDQIWPRVTQALAQVGLDLPLDHPTSELSGGQKQRLALAGVIAMGADIVLLDEPTANLDPDGVREVVSNISRAVETTGATMIVVEHRVSTWLDHVDRIIALGPDSRVLADGPARDVIAKHGRELSELGIWVPENDPQLPAALTPTHSDTAIHARELAVGWNQPLGTYGFDIPAGASTVITGANGKGKSTLLLTLAGLLPAHSGRVEVAHNIARGLHTDPLRWKSKELSSRFGFVFQDPEHQFVAATVREEMRVGLHDHNHLARADLLLERLRLDHLAEANPFTLSGGQKRRLSVATILVNTPDVVFLDEPTFGQDRTTFIELVTLLRELTDAGTTVVSITHDELYRRCLGDKEIAL | not soluble
MQITSNTRLNELWELYFQTLDKSTSWTFTKESFYNRYLKEPLGKKKLDSIQEHHIMAIIRHLQAEGMATRTVNTTLEILRPLFDFAIKNKALRDNPTRFIVLKKDNLEHHHHHH | not soluble
MRFYIKTFGCQMNENDSEAMAGLLVKEGFTPASSPEEADVVIINTCAVRRKSEEKAYSELGQVLKLKKKKKIVVGVAGCVAEKEREKFLEKGADFVLGTRAVPRVTEAVKKALEGEKVALFEDHLDEYTHELPRIRTSRHHAWVTIIHGCDRFCTYCIVPYTRGRERSRPMADILEEVKKLAEQGYREVTFLGQNVDAYGKDLKDGSSLAKLLEEASKIEGIERIWFLTSYPTDFSDELIEVIAKNPKVAKSVHLPVQSGSNRILKLMNRRYTKEEYLALLEKIRSKVPEVAISSDIIVGFPTETEEDFMETVDLVEKAQFERLNLAIYSPREGTVAWKYYKDDVPYEEKVRRMQFLMNLQKRINRKLNERYRGKTVRIIVEAQAKNGLFYGRDIRNKIIAFEGEDWMIGRFADVKVEKITAGPLYGKVVWVEKTPSPVSSSE | soluble
QRKISNIGAQSSMKLEDIKTPSASLTTTLAGRLAGVVAVQRTGEPGKDAADIWIRGIATPNTATPLILVDGVERAFNDIDPEDIESLTTLKDASATAVYGVRGANGVIIIKTKPGK | not soluble
MGHHHHHHSHPKGVLPSHYYESFLEKKGPCDRDYKKFWAGLQGLTIYFYNSNRDFQHVEKLNLGAFEKLTDEIPWGSSRDPGTHFSLILRNQEIKFKVETLECREMWKGFILTVVELRVPTDLTLLPGHLYMMSEVLAK | not soluble
MDDDILGLEDVTASEAFKIIYELSKASKIDADRSDAAKAQFTLLHSTLLQALQAERDLLDQAKALKRQKEEQEAAITGAGGVPGADDIDQLREDVEAALGEAALAQERQQLLQLEVTDLQRQRNDLGARMEELAAEHAAALQPVIAQARGEAAALVDELDEERRRVEAAHGELEDMKSKLAAVQEEIEAMGETKAVERANLVKVDPLPDKARRQSEAVAAILKSVQGQLESMNARYGEHDTQYKTAAEREQQLTEEHTKMLTALERGRVQVESKARHADDVRKDVELASIEADKILADQVELDLRVKNLALELKAESDHLNRRQREKELMLRQYRVADQQLKDARDMLPNLKFQVEQMHRDVNTLEARRRAQSRELSDVKRELDIQMAAFLHEEADGKEKVALFQLTYKEVAALEAELAALKREEAERDTILRDLGSQRDRVALAIAQKLSKVKDVQMTSRIKEVELAELKKIRKEVGRRIRDFEKLYDLVKNQRNKFVNLIQAASQSTTEMKDKLKVLQNELDILQNEVGIKDKLLQQQHTQHAANIAERDQLRVELGRLGMVFRDKQAVVDEQIAEVDKLNAIINGCEKEMLRLKKQYELVIEARNYTGIMLIDRNDELCVLYEKANILDEVIKSGQLELMRREDEARLLRLEVGELERSIGVTRRLVPSVPLLDNDVAALQKALFEARREAEALSLALENPSNQGRWRLLEGKIPDREELSAKIQALEERLNDKKEQLLEKELILEEITSLSDKLRVQAAEGRADTLELAQRVNEYQSKLRAVTRKIMATVSELSMYQASALKLGAEKEELEGAVSLASQRLEAGEPPTDDAEREWYRLERERHTVDAMAEERRAVAAALDARVAEVQSTAEPRPNAYIPEQLGIPKPYGSFAPFKPQEAGSTMRHIRKPSPKEVVI | not soluble
MRHPDFPVPPRIDAFASWEASLRLAFARRGGRTVLASCRHRGPLRVQKALYPEGEGVCHVVLLHPPAGIAGGDVLDIGIELGAEAHAVLTTPGATKWYKSPGRTAMQQVAIRLDAGARLDWLPQENIVFNQARPVIDLTLDLAPGAAAIGWDITMLGRHAAGESWQEGRIAMHTRLRCEGQPLWIESTAFDAQSPVLGATTGMAGFHVVGTLWAVGAGATEALAETLAEQLPYRDDLRAGVTCLTQDAPGRPSVLLLRVLARRPEDARALLSQTWLALREPIHGVAGRPLRLWATLEHHHHHH | not soluble
MLLFSAFLIFGFSIGFSEEASCRHPHERFIGTRCYAFVSKKHTYNTAKEYCDSHGYSLATVDNAITSNFLASSAATEFGSNNGQFWIGLSRKKDYELFNWDDGTIVSYTNFEAGFPNKQDFVAENVRNGRWQTLAEHKELEFVCSYDPTATTSAAPTTIPPTTTTTRAPTTTTVRKTTQTTATTMTTPKPTTTVSTTTTTTVPPTTTPKACPQGFVLFEPTQKCYIVLVYGNDSDYPDVPDDAPFLTRENQRCAKYGATVATIHSSDLNDLFRSLIYERFNDTRYATIGLRNIDMKTISGKWQWFDGTSPDYLNFGNMFPKTGDYIAQTSSQGFWVSYTHTAPNEGVVCSKNRKSERGFTGLVDIDQAAIKKLELQTYLK | not soluble
MSIERSSPIPLYFQLAGELRAAIESGAYPPGSKLPTEGELCQQYDVSRSVVRQALQSLAHDNLIETERGRGAFVLERKVPIALVQQLDPLLESMAKAGFKLTTRVLKQERIKPPAHVAEQIGENDAVFLERLRYADGVVFLVVRNFLPYSRFPDLLQSKELEDVSLYQYLAKRYNAVATTGKRQVELARINEEAIAAQLHVEMNSYVLFNREVTYDQNKQVLEYYESWHHPDRTRLTIDLHRTY | not soluble
